Measurements as given in PMC7961048 (2021).
Non-standard residues stand in square brackets, D forms with d. No end group written: not given here. *: point of attachment. FITC = O=C1OC2(c3ccc(O)cc3Oc3cc(O)ccc32)c2ccc(NC(=S)*)cc21; pS = N[C@@H](COP(=O)(O)O)C(=O)O

T1: full-length human 14-3-3β fused to the C terminus of MBP (human, UniProt P31946 1-246)
T1 chain: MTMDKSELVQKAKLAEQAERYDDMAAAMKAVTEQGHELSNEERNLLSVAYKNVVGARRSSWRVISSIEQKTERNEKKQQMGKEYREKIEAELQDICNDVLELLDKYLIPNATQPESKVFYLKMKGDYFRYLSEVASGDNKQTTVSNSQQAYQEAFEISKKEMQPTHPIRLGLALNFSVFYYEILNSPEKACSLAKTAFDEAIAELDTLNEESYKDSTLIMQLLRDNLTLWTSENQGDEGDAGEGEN

T2: unfused 14-3-3τ devoid of the flexible C-terminal tail (human)
T2 chain: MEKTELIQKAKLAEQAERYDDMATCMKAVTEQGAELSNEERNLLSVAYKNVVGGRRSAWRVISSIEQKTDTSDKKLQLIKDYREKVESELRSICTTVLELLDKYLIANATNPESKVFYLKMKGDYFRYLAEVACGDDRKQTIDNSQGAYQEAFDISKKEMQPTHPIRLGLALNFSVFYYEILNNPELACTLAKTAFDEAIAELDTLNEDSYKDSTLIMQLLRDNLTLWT

T3: full-length human 14-3-3σ fused to the C terminus of MBP (human, UniProt P31947 1-248)
T3 chain: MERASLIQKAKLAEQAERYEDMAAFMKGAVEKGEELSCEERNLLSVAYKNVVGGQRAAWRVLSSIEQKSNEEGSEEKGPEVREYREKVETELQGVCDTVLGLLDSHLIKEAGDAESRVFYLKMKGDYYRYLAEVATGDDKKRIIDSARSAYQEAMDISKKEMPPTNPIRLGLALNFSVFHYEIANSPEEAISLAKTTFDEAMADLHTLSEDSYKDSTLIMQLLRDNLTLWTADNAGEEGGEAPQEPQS

T4: full-length human 14-3-3η fused to the C terminus of MBP (human, UniProt Q04917 1-246)
T4 chain: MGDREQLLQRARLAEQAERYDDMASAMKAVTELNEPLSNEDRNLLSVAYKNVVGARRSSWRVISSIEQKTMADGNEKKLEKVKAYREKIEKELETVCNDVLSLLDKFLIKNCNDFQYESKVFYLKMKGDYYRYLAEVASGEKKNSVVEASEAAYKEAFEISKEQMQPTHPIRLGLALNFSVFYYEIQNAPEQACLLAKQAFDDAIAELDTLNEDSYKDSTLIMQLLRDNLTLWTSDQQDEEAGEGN

T5: full-length human 14-3-3ε fused to the C terminus of MBP (human, UniProt P62258 1-255)
T5 chain: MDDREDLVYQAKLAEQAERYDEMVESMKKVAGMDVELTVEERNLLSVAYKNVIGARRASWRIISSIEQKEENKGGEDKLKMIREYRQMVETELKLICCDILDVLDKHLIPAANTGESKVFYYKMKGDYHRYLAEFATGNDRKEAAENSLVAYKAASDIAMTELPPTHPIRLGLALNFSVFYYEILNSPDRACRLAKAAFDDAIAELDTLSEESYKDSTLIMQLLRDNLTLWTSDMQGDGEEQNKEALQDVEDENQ

T6: full-length human 14-3-3τ fused to the C terminus of MBP (human, UniProt P27348 1-245)
T6 chain: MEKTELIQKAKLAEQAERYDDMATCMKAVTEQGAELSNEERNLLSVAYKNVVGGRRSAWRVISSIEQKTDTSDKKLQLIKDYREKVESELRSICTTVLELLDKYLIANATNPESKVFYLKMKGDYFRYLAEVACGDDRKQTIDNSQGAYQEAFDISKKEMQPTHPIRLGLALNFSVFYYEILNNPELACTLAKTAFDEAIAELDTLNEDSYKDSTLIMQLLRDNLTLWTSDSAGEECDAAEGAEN

T7: unfused 14-3-3ε devoid of the flexible C-terminal tail (human)
T7 chain: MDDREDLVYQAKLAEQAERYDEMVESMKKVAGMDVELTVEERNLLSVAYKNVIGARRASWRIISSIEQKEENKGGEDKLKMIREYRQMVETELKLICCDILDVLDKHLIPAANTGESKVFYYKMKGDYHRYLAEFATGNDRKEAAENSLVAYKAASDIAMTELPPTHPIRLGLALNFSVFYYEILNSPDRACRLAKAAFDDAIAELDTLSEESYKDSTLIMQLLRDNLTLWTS

T8: unfused 14-3-3β devoid of the flexible C-terminal tail (human)
T8 chain: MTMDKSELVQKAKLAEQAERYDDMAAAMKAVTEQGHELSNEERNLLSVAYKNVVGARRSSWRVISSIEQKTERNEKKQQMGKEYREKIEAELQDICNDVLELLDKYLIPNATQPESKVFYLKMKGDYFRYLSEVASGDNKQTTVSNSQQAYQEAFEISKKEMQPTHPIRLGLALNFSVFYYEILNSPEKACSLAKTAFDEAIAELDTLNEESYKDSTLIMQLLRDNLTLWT

B1: full-length human 14-3-3ζ fused to the C terminus of MBP (natural protein)
chain: MDKNELVQKAKLAEQAERYDDMAACMKSVTEQGAELSNEERNLLSVAYKNVVGARRSSWRVVSSIEQKTEGAEKKQQMAREYREKIETELRDICNDVLSLLEKFLIPNASQAESKVFYLKMKGDYYRYLAEVAAGDDKKGIVDQSQQAYQEAFEISKKEMQPTHPIRLGLALNFSVFYYEILNSPEKACSLAKTAFDEAIAELDTLSEESYKDSTLIMQLLRDNLTLWTSDTQGDEAEAGEGGEN
B2: full-length human 14-3-3γ fused to the C terminus of MBP (natural protein)
chain: MVDREQLVQKARLAEQAERYDDMAAAMKNVTELNEPLSNEERNLLSVAYKNVVGARRSSWRVISSIEQKTSADGNEKKIEMVRAYREKIEKELEAVCQDVLSLLDNYLIKNCSETQYESKVFYLKMKGDYYRYLAEVATGEKRATVVESSEKAYSEAHEISKEHMQPTHPIRLGLALNYSVFYYEIQNAPEQACHLAKTAFDDAIAELDTLNEDSYKDSTLIMQLLRDNLTLWTSDQQDDDGGEGNN

Assays:
[1] = biological target: T9, HPV33 E6 phospho-PBM peptide p33E6 (human papillomavirus type 33); test: FP; +FSC
[2] = biological target: T10, HPV35 E6 phospho-PBM peptide p35E6 (human papillomavirus type 35); test: FP; +FSC
[3] = biological target: T9, HPV33 E6 phospho-PBM peptide p33E6; test: FP; with FSC
[4] = biological target: T10, HPV35 E6 phospho-PBM peptide p35E6; test: FP; with FSC
[5] = biological target: T9, HPV33 E6 phospho-PBM peptide p33E6; test: FP
[6] = biological target: T10, HPV35 E6 phospho-PBM peptide p35E6; test: FP
[7] = biological target: T9, HPV33 E6 phospho-PBM peptide p33E6; test: FP; remark: listed apart in the source
[8] = biological target: T10, HPV35 E6 phospho-PBM peptide p35E6; test: FP; remark: listed apart in the source
[9] = biological target: B2; test: FP; with FSC
[10] = biological target: B2; test: FP
[11] = biological target: T1, full-length human 14-3-3β fused to the …; test: FP
[12] = biological target: B1; test: FP
[13] = biological target: T2, unfused 14-3-3τ devoid of the flexible …; test: FP
[14] = biological target: T3, full-length human 14-3-3σ fused to the …; test: FP
[15] = biological target: T4, full-length human 14-3-3η fused to the …; test: FP
[16] = biological target: T5, full-length human 14-3-3ε fused to the …; test: FP
[17] = biological target: T6, full-length human 14-3-3τ fused to the …; test: FP
[18] = biological target: T7, unfused 14-3-3ε devoid of the flexible …; test: FP
[19] = biological target: T8, unfused 14-3-3β devoid of the flexible …; test: FP

Row | Binder | Kd [1] [µM] | Kd [2] [µM] | Kd [3] [µM] | Kd [4] [µM] | Kd [5] [µM] | Kd [6] [µM] | Kd [7] [µM] | Kd [8] [µM] | Kd [9] [µM] | Kd [10] [µM] | Kd [11] [µM] | Kd [12] [µM] | Kd [13] [µM] | Kd [14] [µM] | Kd [15] [µM] | Kd [16] [µM] | Kd [17] [µM] | Kd [18] [µM] | Kd [19] [µM]
1 | B1 | 3.9 | 294 | 3.94 | 294 | 2.7 | 191 | 2.72 | 191 |  |  |  |  |  |  |  |  |  |  | 
2 | B2 | 2.2 | 228 | 2.15 |  | 0.9 | 125 |  | 125 |  |  |  |  |  |  |  |  |  |  | 
3 | {FITC}-WLRRA[pS]APLPGLK [fluorescently labeled HSPB6 phosphopeptide (fpB6)] |  |  |  |  |  |  |  |  | 4.4 | 1.95 | 5.22 | 4.76 | 6.53 | 9.62 | 2.47 | 7.17 | 9 | 5.27 | 3.75
